Experimental data reported in publication PMC9672406.

B1: ScMqnA (chorismate dehydratase MqnA) (Streptomyces coelicolor A3(2)) (protein)
chain: MDNSRTRPRVGHIQFLNCLPLYWGLARTGTLLDFELTKDTPEKLSEQLVRGDLDIGPVTLVEFLKNADDLVAFPDIAVGCDGPVMSCVIVSQVPLDRLDGARVALGSTSRTSVRLAQLLLSERFGVQPDYYTCPPDLSLMMQEADAAVLIGDAALRANMIDGPRYGLDVHDLGALWKEWTGLPFVFAVWAARRDYAEREPVITRKVHEAFLASRNLSLEEVEKVAEQAARWEAFDEDTLAKYFTTLDFRFGAPQLEAVTEFARRVGPTTGFPADVKVELLKP
B2: ScMqnA (chorismate dehydratase MqnA) (Streptomyces coelicolor A3(2); Y242F) (protein)
chain: MDNSRTRPRVGHIQFLNCLPLYWGLARTGTLLDFELTKDTPEKLSEQLVRGDLDIGPVTLVEFLKNADDLVAFPDIAVGCDGPVMSCVIVSQVPLDRLDGARVALGSTSRTSVRLAQLLLSERFGVQPDYYTCPPDLSLMMQEADAAVLIGDAALRANMIDGPRYGLDVHDLGALWKEWTGLPFVFAVWAARRDYAEREPVITRKVHEAFLASRNLSLEEVEKVAEQAARWEAFDEDTLAKFFTTLDFRFGAPQLEAVTEFARRVGPTTGFPADVKVELLKP
B3: ScMqnA (chorismate dehydratase MqnA) (Streptomyces coelicolor A3(2); N17A) (protein)
chain: MDNSRTRPRVGHIQFLACLPLYWGLARTGTLLDFELTKDTPEKLSEQLVRGDLDIGPVTLVEFLKNADDLVAFPDIAVGCDGPVMSCVIVSQVPLDRLDGARVALGSTSRTSVRLAQLLLSERFGVQPDYYTCPPDLSLMMQEADAAVLIGDAALRANMIDGPRYGLDVHDLGALWKEWTGLPFVFAVWAARRDYAEREPVITRKVHEAFLASRNLSLEEVEKVAEQAARWEAFDEDTLAKYFTTLDFRFGAPQLEAVTEFARRVGPTTGFPADVKVELLKP

The proteins below were run on C=C(O[C@@H]1C=C(C(=O)O)C=C[C@H]1O)C(=O)O (assay: purified protein). Conditions: 100 mM Tris/HCl pH 7.5, 22 °C, 5 min, 0.05 μM enzyme.

Protein	Km	Vmax	kcat
B1	121 ± 38 µM	0.458 µmol/min/mg	0.24 ± 0.02 s⁻¹
B2	377 ± 106 µM	1.06 µmol/min/mg	0.56 ± 0.06 s⁻¹
B3	257 ± 87 µM	0.473 µmol/min/mg	0.25 ± 0.02 s⁻¹
